From US7799901B2, “Modulators of the function of FAS receptors and other proteins” (Yeda Research and Development Co. Ltd., priority 1995, dated 2010)

B1: MORT-1: Mediator of Receptor-induced Toxicity; protein binding the intracellular domain of FAS-R, SEQ ID NO:2 (protein)
chain: VNQAPECRFGGGILGPLGKRRDLARASEPRTEGARRAGPQPRPLADPAMDPFLVLLHSVSSSLSSSELTELKFLCLGRVVKRKLERVQSGLDLFSMLLEQNDLEPGHTELLRELLASLRRHDLLRRVDDFEAGAAAGAAPGEEDLCAAFNVICDNVGKDWRRLARQLKVSDTKIDSIEDRYPRNLTERVRESLRIWKNTEKENATVAHLVGALRSCQMNLVADLVQEVQQARDLQNRSGAMSPMSWNSDASTSEAS
B2: MACHβ1: MACH isoform, cDNA SEQ ID NO: 4, amino acid SEQ ID NO: 5; lacks the CED3/ICE homology region (protein)
chain: MDFSRNLYDIGEQLDSEDLASLKFLSLDYIPQRKQEPIKDALMLFQRLQEKRMLEESNLSFLKELLFRINRLDLLITYLNTRKEEMERELQTPGRAQISAYRVMLYQISEEVSRSELRSFKFLLQEEISKCKLDDDMNLLDIFIEMEKRVILGEGKLDILKRVCAQINKSLLKIINDYEEFSKERSSSLEGSPDEFSNDFGQSLPNEKQTSGILSDHQQSQFCKSTGESAQTSQH

How the values were obtained:
[1] = target: T1, MORT-1 (Homo sapiens, UniProt Q13158, G32V); assay: Two-hybrid test (FIG. 1), binding to full-length MORT-1; design: expressed in transfected cells; host or cells: SFY526 yeast
T1 sequence (Q13158 with tags, fused parts or gaps G32V): B1 chain
Text: (§1) To isolate proteins interacting with the intracellular domain of the FAS-R, the yeast two-hybrid system was used (Fields and Song, 1989). […] In this system, the genes for the candidate interacting proteins are cloned into separate expression vectors. In one expression vector, the sequence of the one candidate protein is cloned in phase with the sequence of the GAL4 DNA-binding domain to generate a hybrid protein with the GAL4 DNA-binding-domain, and in the other vector, the sequence of the second candidate protein is cloned in phase with the sequence of the GAL4 activation domain to generate a hybrid protein with the GAL4-activation domain. The two hybrid vectors are then co-transformed into a yeast host strain having a lacZ or HIS3 reporter gene under the control of upstream GAL4 binding sites. Only those transformed host cells (cotransformants) in which the two hybrid proteins are expressed and are capable of interacting with each other, will be capable of expressing the reporter gene. In the case of the lacZ reporter gene, host cells expressing this gene will become blue in color when X-gal is added to the cultures.
(b) retransforming the plasmid DNA and original FAS-IC hybrid plasmid and control plasmids described in (a) into yeast host cells of strain SFY526 and determining the LACZ^+ activity (effectivity of β-gal formation, i.e., blue color formation).
In FIG. 1, there is depicted the interaction of the proteins encoded by the Gal4 DNA binding domain and activation-domain constructs (pGBT9 and pGAD-GH) within transfected SFY526 yeasts as assessed by β-galactosidase expression filter assay. The DNA-binding-domain constructs included four constructs of the human Fas-IC, four constructs of the mouse Fas-IC including two full-length constructs having […] or Ile to Ala replacement mutations at position 225 (I225N and I225A, respectively), and three MORT-1 constructs, all of which are shown schematically on the left hand side of FIG. 1. […]

[2] = target: T2, MORT1DD (130-245) (Homo sapiens, UniProt Q13158); assay: Two-hybrid β-galactosidase expression filter assay in SFY526 yeast, DNA-binding domain hybrid MORT1DD (130-245)
T2 construct: 130-245 MORT-1; expressed in transfected cells
T2 sequence (Q13158 82-197): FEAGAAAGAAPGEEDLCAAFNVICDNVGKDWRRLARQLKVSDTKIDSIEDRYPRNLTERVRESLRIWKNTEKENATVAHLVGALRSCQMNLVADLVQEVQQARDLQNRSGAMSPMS
Text: as §1, with “Only those transformed host cells (cotransformants) in which the two hybrid proteins are expressed and are capable of interacting with each other, will be capable of expressing the reporter gene. In the case of the lacZ reporter gene, host cells expressing this gene will become blue in color when X-gal is added to the cultures.” left out
The yeast two-hybrid test was further applied to evaluate the specificity of binding of MACH to MORT-1, in particular, to define the region in MORT-1 to which MACH binds, as well as to determine which of the MACH ORFs interacts with MORT-1, the procedures being as set forth herein above in Examples 1 and 2. Briefly, various MORT-1 and MACH constructs were prepared for testing the interaction of the proteins encoded by the Gal4 DNA-binding domain and activation domain constructs within transfected SFY526 yeast cells as assessed by the β-galactosidase expression filter assay. […]

Molecule | binding to full-length MORT-1 in two-hybrid test [1] | development of color (interaction with DNA-binding domain hybrid) [2]
B1 | binds to itself | –
B2 | – | −−− (“−−−” indicates the lack of development of color within 24 hrs. of the assay)
